Measurements: US12551571B2, “Protease-cleavable substrates and methods of use thereof” (CytomX Therapeutics, Inc., priority 2022, dated 2026)
Square brackets hold non-standard residues; d marks the D form. Ends that are not written are not given here. Peptide text beside a SMILES is read from it. * marks the point of attachment. Dnp = O=[N+]([O-])c1ccc(*)c([N+](=O)[O-])c1; Mca = COc1ccc2c(CC(=O)*)cc(=O)oc2c1

Assays:
[1] = tested on: supernatant from human bone marrow aspirates; experiment: In situ stability of peptide probes in supernatant from human bone marrow aspirates; settings: 20 μM peptide probe, 37° C.
[2] = biological target: T1, MMP2 (Homo sapiens, UniProt P08253); experiment: Internally quenched peptide probe cleavage assay, MMP2; format: biochemical; settings: internally quenched peptide probe 20 μM (20 pM in source), 20 nM protease, 37° C.
T1 sequence (P08253 110-660): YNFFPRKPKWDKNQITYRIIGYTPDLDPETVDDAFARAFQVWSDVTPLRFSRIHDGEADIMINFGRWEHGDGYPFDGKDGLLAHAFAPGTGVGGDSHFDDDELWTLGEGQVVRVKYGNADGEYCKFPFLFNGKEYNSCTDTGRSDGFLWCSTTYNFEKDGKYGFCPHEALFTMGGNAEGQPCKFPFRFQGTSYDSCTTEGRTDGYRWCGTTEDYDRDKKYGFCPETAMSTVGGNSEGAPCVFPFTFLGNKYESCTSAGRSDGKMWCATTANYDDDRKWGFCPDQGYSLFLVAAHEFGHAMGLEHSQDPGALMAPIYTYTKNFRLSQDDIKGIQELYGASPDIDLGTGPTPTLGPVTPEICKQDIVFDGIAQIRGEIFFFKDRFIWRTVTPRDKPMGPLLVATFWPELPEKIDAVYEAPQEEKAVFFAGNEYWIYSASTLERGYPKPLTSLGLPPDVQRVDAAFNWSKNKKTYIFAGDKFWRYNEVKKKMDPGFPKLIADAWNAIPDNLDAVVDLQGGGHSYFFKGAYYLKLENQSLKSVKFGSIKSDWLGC
Description: (§1) The CMs listed in Table 9 below were presented in an internally quenched peptide probe format, rather than included in an activatable antibody format. […] Cleavability kinetics (i.e., pM/s and kcat/KM (M^-1s^-1)) were determined in 96- or 384-well plate format at 37° C. in the following buffers: 50 mM TRIS-HCl (pH 7.4), 150 mM NaCl, 0.05% Tween 20 for MT-SP1, 50 mM Tris-HCl (pH 7.5), 10 mM CaCl2, 150 mM NaCl, 0.05% (w/v) Brij-35 for MMP2 and MMP9, and 50 mM HEPES (pH 6.8), 10 mM CaCl2, 0.5 mM MgCl2, 0.05% (w/v) Brij-35 for MMP14. Cleavability kinetics were determined on an Infinite 200 PRO (Tecan) multimode plate reader using a fluorescence excitation wavelength of 320 nm and an emission wavelength of 405 nm. […] The CMs listed in Table 12 below were presented in an internally quenched peptide probe format, rather than included in an activatable antibody format. […] Cleavability kinetics (i.e., pM/s) were determined in 96- or 384-well plate format at 37° C. in the following buffers: 50 mM TRIS-HCl (pH 7.4), 150 mM NaCl, 0.05% Tween 20 for MT-SP1, 50 mM Tris-HCl (pH 7.5), 10 mM CaCl2, 150 mM NaCl, 0.05% (w/v) Brij-35 for MMP2 and MMP9, and 50 mM HEPES (pH 6.8), 10 mM CaCl2, 0.5 mM MgCl2, 0.05% (w/v) Brij-35 for MMP14. Cleavability kinetics were determined on an Infinite 200 PRO (Tecan) multimode plate reader using a fluorescence excitation wavelength of 320 nm and an emission wavelength of 405 nm.

[3] = biological target: MMP14 (Homo sapiens, UniProt P50281); experiment: Internally quenched peptide probe cleavage assay, MMP14; format: biochemical; settings: internally quenched peptide probe 20 μM (20 pM in source), 20 nM protease, 37° C.
Description: as §1

[4] = biological target: T2, MT-SP1 (Homo sapiens, UniProt Q9Y5Y6); experiment: Internally quenched peptide probe cleavage assay, MT-SP1; format: biochemical; settings: internally quenched peptide probe 20 μM (20 pM in source), 20 nM protease, 37° C.
T2 sequence (Q9Y5Y6 1-855): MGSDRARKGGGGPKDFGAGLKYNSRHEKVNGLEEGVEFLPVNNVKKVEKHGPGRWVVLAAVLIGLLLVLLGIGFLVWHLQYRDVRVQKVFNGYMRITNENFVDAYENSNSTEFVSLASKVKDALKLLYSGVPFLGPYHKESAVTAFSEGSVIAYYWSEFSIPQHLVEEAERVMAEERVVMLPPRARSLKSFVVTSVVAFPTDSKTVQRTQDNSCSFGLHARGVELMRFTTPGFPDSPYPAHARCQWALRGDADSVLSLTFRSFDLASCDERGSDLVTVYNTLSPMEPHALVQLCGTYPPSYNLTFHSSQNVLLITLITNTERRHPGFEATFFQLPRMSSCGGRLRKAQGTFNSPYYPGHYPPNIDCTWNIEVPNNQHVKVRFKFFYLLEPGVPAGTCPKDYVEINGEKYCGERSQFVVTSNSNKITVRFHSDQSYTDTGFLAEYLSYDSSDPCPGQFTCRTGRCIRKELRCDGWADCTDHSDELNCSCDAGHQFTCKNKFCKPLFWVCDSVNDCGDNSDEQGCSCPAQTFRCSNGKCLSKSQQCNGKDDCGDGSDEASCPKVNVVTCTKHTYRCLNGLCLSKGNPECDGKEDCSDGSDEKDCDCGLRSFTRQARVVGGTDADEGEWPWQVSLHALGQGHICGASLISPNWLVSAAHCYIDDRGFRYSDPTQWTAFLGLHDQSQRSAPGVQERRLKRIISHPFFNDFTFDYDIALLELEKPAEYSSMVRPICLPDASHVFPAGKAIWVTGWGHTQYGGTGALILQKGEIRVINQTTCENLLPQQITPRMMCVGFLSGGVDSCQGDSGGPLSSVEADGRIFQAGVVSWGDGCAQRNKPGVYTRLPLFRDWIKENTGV
Description: as §1

[5] = biological target: MMP9 (Homo sapiens, UniProt P14780); experiment: Internally quenched peptide probe cleavage assay, MMP9; format: biochemical; settings: internally quenched peptide probe 20 μM (20 pM in source), 20 nM protease, 37° C.
Description: as §1

Chain of MMP9 (P14780 94-707): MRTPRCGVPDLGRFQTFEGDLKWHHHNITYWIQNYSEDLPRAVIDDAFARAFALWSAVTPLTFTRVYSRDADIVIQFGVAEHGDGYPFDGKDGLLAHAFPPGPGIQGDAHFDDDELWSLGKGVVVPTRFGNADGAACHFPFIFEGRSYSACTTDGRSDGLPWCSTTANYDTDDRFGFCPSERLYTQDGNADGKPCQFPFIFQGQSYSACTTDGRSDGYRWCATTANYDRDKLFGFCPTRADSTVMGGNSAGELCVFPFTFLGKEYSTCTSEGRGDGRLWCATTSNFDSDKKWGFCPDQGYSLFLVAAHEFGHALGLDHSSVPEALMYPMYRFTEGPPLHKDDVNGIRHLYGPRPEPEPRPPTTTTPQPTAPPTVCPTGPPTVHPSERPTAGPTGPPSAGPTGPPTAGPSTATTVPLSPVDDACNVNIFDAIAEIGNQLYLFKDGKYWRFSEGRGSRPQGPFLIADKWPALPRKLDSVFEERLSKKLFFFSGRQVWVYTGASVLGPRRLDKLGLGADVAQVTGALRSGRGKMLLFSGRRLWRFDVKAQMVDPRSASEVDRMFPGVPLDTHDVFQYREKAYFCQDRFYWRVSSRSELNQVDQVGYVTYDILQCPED

Probe Cleavage (pM/s) MMP2 [2] | Probe Cleavage (pM/s) MMP14 [3] | Probe Cleavage (pM/s) MT-SP1 [4] | Probe Cleavage (pM/s) MMP9 [5] | Compound | cleavage rate in supernatant from human bone marrow aspirates [1]
– | – | – | – | COc1ccc2c(CC(=O)N[C@@H](CO)C(=O)N3CCC[C@H]3C(=O)N[C@@H](C)C(=O)NCC(=O)N[C@@H](CC(C)C)C(=O)N[C@@H](CO)C(=O)NCC(=O)N[C@@H](CCCNC(=N)N)C(=O)N[C@@H](CO)C(=O)NCC(=O)N[C@@H](CCCCNc3ccc([N+](=O)[O-])cc3[N+](=O)[O-])C(=O)N[C@H](CCCNC(=N)N)C(=O)O)cc(=O)oc2c1 [reference compound] (Mca-SPAGLSGRSGK(Dnp)[dR]-OH) | 2191 pM/s
468 pM/s | 300 pM/s | 1750 pM/s | 255 pM/s | HQSRSAIALYA (also: MCA, Lys(DNP), D-Arg labels, places not given here) [X1 is Y and X2 is A] | –
65.4 pM/s | 36.4 pM/s | – | 436 pM/s | HQSRSGAWGLL (Mca-HQSRSGAWGLL-{Lys(DNP)-dR}) | –
696 pM/s | 335 pM/s | 8.00 pM/s | – | HQSASGPWGLL (also: MCA, Lys(DNP), D-Arg labels, places not given here) | –
726 pM/s | 437 pM/s | – | – | AQSRSGPWGLL (Mca-AQSRSGPWGLL-{Lys(DNP)-dR}) | –
434 pM/s | 92.7 pM/s | 1960 pM/s | 328 pM/s | HQSRSAIALY (also: MCA, Gly-Lys(DNP)-D-Arg labels, places not given here) [X1 is Y] | –
– | 660 pM/s | – | – | HQSRSAPWGLL (Mca-HQSRSAPWGLL-{Lys(DNP)-dR}) | –
94.8 pM/s | 27.3 pM/s | – | 705 pM/s | HQSRSGPWGL (Mca-HQSRSGPWGL-{Lys(DNP)-dR}) [X1 absent] | –
488 pM/s | 475 pM/s | – | – | HQSRSGPWALL (Mca-HQSRSGPWALL-{Lys(DNP)-dR}) | –
4220 pM/s | 1280 pM/s | 11500 pM/s | 2550 pM/s | AIALHQSRS (also: MCA, Lys(DNP), D-Arg labels, places not given here) | –
76.9 pM/s | 95.5 pM/s | – | 41.9 pM/s | HQSRSAIAL (Mca-HQSRSAIAL-{Lys(DNP)-dR}) | –
– | 548 pM/s | 32.0 pM/s | – | HQSRPWGL (also: MCA, Lys(DNP), D-Arg labels, places not given here) | –
594 pM/s | 379 pM/s | – | – | HQSRAGPWGLL (Mca-HQSRAGPWGLL-{Lys(DNP)-dR}) | –
692 pM/s | 424 pM/s | – | – | HASRSGPWGLL (Mca-HASRSGPWGLL-{Lys(DNP)-dR}) | –
61.1 pM/s | 0.00 pM/s | – | 5.9 pM/s | HQSRSGPWGAL (Mca-HQSRSGPWGAL-{Lys(DNP)-dR}) | –
410 pM/s | 345 pM/s | – | – | HQSRSGPWGLA (Mca-HQSRSGPWGLA-{Lys(DNP)-dR}) | –
61.6 pM/s | 0.00 pM/s | – | 86.5 pM/s | HQSRSPWG (Mca-HQSRSPWG-{Lys(DNP)-dR}) | –
623 pM/s | 344 pM/s | – | – | HQARSGPWGLL (Mca-HQARSGPWGLL-{Lys(DNP)-dR}) | –

Compound | Probe Cleavage (pM/s) MMP2 [2] | Probe Cleavage (pM/s) MMP14 [3] | Probe Cleavage (pM/s) MT-SP1 [4] | Probe Cleavage (pM/s) MMP9 [5] | cleavage rate in supernatant from human bone marrow aspirates [1]
PWGLHQSRS (also: MCA, Lys(DNP)-D-Arg labels, places not given here) | 2550 pM/s | 5880 pM/s | 1280 pM/s | 5150 pM/s | 302 pM/s
